Results: PMC11335189, “Revealing molecular determinants governing mambalgin-3 pharmacology at acid-sensing ion channel 1 variants” (Cellular and Molecular Life Sciences: CMLS, 2024)

T1: rASIC1a S83T/Q84E/R175C/E177G (rat) (UniProt P55926)
T1 sequence: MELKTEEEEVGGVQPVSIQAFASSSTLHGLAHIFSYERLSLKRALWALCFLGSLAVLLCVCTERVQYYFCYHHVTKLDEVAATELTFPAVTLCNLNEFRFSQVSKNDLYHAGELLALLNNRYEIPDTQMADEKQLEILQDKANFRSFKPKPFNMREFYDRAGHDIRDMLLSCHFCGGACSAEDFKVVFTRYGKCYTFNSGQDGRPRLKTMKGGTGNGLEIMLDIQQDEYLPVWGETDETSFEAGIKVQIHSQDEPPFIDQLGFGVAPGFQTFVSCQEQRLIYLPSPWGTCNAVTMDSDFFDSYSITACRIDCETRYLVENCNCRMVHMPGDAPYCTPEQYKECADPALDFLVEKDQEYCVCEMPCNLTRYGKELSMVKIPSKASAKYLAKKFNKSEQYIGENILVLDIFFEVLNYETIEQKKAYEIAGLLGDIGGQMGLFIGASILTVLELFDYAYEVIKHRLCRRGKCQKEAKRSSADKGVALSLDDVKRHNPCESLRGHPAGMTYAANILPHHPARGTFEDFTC

T2: rat acid-sensing ion channel 1b (rat)
T2 sequence (P55926 whole entry, looked up): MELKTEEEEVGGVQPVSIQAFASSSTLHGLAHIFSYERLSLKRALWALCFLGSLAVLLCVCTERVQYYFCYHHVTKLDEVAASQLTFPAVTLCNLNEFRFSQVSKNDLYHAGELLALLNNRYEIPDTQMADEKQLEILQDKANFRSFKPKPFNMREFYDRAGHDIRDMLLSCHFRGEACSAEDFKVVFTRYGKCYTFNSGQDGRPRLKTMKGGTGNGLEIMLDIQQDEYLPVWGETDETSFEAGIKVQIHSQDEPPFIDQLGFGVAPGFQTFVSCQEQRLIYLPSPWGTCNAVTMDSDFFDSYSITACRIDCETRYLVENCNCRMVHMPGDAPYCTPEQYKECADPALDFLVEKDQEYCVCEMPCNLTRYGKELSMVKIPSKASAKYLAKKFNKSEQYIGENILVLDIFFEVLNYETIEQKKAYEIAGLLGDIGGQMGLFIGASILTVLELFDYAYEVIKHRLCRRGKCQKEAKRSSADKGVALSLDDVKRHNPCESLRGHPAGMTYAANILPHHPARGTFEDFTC

T3: human acid-sensing ion channel 1a (human) (UniProt P78348)
T3 sequence: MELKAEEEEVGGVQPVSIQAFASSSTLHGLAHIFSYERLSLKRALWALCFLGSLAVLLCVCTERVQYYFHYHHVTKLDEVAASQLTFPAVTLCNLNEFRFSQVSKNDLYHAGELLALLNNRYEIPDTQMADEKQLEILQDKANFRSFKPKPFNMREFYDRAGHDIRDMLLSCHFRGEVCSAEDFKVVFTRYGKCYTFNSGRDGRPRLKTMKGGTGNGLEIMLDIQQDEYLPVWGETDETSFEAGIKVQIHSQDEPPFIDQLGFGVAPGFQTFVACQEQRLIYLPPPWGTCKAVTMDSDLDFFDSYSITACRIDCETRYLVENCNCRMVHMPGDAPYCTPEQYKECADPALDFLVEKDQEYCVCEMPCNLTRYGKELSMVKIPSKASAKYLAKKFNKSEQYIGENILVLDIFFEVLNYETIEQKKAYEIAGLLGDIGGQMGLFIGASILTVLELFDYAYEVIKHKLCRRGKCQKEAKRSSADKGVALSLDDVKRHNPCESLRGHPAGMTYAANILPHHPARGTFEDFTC

T4: rat acid-sensing ion channel 1a (rat) (UniProt P55926)
T4 sequence: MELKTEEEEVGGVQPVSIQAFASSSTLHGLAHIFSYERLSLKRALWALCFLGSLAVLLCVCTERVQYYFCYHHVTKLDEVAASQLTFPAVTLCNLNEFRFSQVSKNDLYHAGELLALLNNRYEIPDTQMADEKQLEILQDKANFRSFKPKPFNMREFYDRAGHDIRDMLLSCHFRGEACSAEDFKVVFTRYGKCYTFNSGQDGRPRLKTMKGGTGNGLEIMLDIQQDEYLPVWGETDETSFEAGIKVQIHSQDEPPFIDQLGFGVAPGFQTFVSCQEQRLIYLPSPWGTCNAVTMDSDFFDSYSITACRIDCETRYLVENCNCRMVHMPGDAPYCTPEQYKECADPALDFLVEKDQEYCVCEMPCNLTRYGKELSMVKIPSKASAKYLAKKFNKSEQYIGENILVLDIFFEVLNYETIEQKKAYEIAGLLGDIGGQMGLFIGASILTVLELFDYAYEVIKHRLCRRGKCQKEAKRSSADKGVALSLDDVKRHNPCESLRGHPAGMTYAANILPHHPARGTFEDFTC

T5: rASIC1a E362R (rat) (UniProt P55926)
T5 sequence: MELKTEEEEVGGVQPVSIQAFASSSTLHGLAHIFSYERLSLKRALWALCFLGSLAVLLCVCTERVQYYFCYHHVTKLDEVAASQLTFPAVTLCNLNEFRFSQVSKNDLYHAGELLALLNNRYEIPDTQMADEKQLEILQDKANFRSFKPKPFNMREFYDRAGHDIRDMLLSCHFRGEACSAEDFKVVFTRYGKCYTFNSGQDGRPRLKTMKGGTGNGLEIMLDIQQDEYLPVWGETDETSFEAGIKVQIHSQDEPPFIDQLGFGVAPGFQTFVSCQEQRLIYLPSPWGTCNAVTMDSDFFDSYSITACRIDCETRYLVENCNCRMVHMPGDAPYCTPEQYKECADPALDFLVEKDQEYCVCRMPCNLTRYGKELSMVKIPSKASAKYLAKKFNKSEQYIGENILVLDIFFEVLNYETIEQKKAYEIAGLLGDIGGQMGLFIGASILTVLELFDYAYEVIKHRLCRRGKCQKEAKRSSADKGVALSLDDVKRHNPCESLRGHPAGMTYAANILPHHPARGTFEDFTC

B1: mambalgin-3 (peptide)
chain: SLKCYQHGKVVTCHRDMKFCYHNIGMPFRNLKLILQGCSSSCSETENNKCCSTDRCNK

Columns and labels:
[1] = biological target: T1, rASIC1a S83T/Q84E/R175C/E177G (rat)
[2] = biological target: T2, rat acid-sensing ion channel 1b (rat)
[3] = biological target: T3, human acid-sensing ion channel 1a (human)
[4] = biological target: T4, rat acid-sensing ion channel 1a (rat)
[5] = biological target: T2, rat acid-sensing ion channel 1b (rat); remark: listed apart in the source
[6] = biological target: rASIC1b T128S/E129Q/C208R/G210E (rat)
[7] = biological target: T4, rat acid-sensing ion channel 1a (rat); remark: listed apart in the source
[8] = biological target: T2, rat acid-sensing ion channel 1b (rat); remark: listed apart in the source
[9] = biological target: T3, human acid-sensing ion channel 1a (human); remark: listed apart in the source
rASIC1a E362R (rat) = biological target: T5, rASIC1a E362R (rat)

Row | Molecule | I/I (control) of pH 6-evoked currents with 300 nM peptide (I/I (control)) [1] | I/I (control) of pH 6-evoked currents with 300 nM peptide (I/I (control)) [2] | fold loss of potency of current inhibition against wild-type Ma-3 (conditioning pH 7.45, stimulus pH 6) [3] [fold] | fold loss of potency of current inhibition against wild-type Ma-3 (conditioning pH 7.45, stimulus pH 6) [4] [fold] | fold loss of potency of current inhibition against wild-type Ma-3 (conditioning pH 7.45, stimulus pH 6) [5] [fold] | IC50 of inhibition of pH 6-evoked currents (conditioning pH 7.45) [6] [nM] | IC50 of inhibition of pH 6-evoked currents (two-electrode voltage clamp, Xenopus oocytes, conditioning pH 7.45) [7] [nM] | IC50 of inhibition of pH 6-evoked currents (two-electrode voltage clamp, Xenopus oocytes, conditioning pH 7.45) [8] [nM] | maximal inhibition of pH 6-evoked currents at saturating Ma-3 [8] [%] | IC50 of inhibition of pH 6-evoked currents (two-electrode voltage clamp, Xenopus oocytes, conditioning pH 7.45) [9] [nM] | concentration-response of inhibition of pH 6-evoked currents (conditioning pH 7.45); fold change against wild-type rASIC1a (rASIC1a E362R (rat)) [fold]
1 | Ma-3 K8A (peptide) | 0.65 | 0.91 | 4 | 4 | > 30 |  |  |  |  |  | 
2 | B1 | 0.48 | 0.4 |  |  |  | 18.5 | 3.9 | 38.3 | 60 | 25 | 5
